The record followed here is IntAct's records for PubMed 18680311.

For the assay, the target named is sh3k1_human SH3KBP1 (UniProt Q96B97).

For the substance “Polyubiquitin-C (Homo sapiens) (from UniProt P0CG48) K6E”, the “effect of a mutation on the interaction” value was “decreasing interaction”.
